Reference: article PMC4540666
[ ]: non-standard residue; d: D form. pY = N[C@@H](Cc1ccc(OP(=O)(O)O)cc1)C(=O)O

What was measured:
PLCγ1 SH2C-linker (rat) = PLCγ1 SH2C-linker (rat) (UniProt P10686); assay: other fluorescence titration
[1] = biological target: PLCγ1 SH2C domain (C-terminal SH2 domain of PLCγ1) (rat) (UniProt P10686); assay: other fluorescence titration

B1: SLP-76 pY173 peptide (Ac-NSMpY173IDRPPTGK-NH2) (peptide)
peptide: Ac-NSM[pY]IDRPPTGK-NH2
SMILES: CC[C@H](C)[C@H](NC(=O)[C@H](Cc1ccc(OP(=O)(O)O)cc1)NC(=O)[C@H](CCSC)NC(=O)[C@H](CO)NC(=O)[C@H](CC(N)=O)NC(C)=O)C(=O)N[C@@H](CC(=O)O)C(=O)N[C@@H](CCCNC(=N)N)C(=O)N1CCC[C@H]1C(=O)N1CCC[C@H]1C(=O)N[C@H](C(=O)NCC(=O)N[C@@H](CCCCN)C(N)=O)[C@@H](C)O
- Kd (PLCγ1 SH2C-linker (rat)): 2.9 µM
- Kd [1]: 1.6 µM
